From patent publication EP1438388B1

Tests used:
[1] = target: putative IBC-1 receptor on G361 melanoma cells, lower affinity binding site (human); test: Scatchard analysis of AP-IBC-1 binding to G361 melanoma cells; lower affinity slope
[2] = target: putative IBC-1 receptor on G361 melanoma cells, moderately high affinity binding site (human); test: Scatchard analysis of AP-IBC-1 binding to G361 melanoma cells; moderately high affinity slope
[3] = target: putative IBC-1 receptor on G361 melanoma cells, lower affinity binding site (human); test: Scatchard analysis of AP-IBC-1 binding to G361 melanoma cells, bound AP activity; lower affinity slope
[4] = target: putative IBC-1 receptor on G361 melanoma cells, moderately high affinity binding site (human); test: Scatchard analysis of AP-IBC-1 binding to G361 melanoma cells, bound AP activity; moderately high affinity slope

binding sites/cell (binding sites/cell) [1]: 350000
binding sites/cell (binding sites/cell) [2]: 17000
Kd [3]: 0.36 µM
Kd [4]: 0.0375 µM
Substance: alkaline phosphatase-IBC-1 fusion protein (from UniProt P81605 20-110) (ligand)
